# Where two headings read alike, the source gives them in different places.
# What was measured:
# U87MG cells = assay: cell adhesion assay on vitronectin coated plates; type: cell-based, human; settings: vitronectin coated plates; n=4; read-out: calculated IC50 (inhibition of U87MG cell adhesion)
# Protocol: Ninety-six well plates were coated with 2 μg/mL of fibronectin or vitronectin (Sigma-Aldrich) in PBS at 4° C. overnight and treated with 2% bovine serum albumin (BSA) for 1 h at 37° C. U87MG cells (human glioblastoma, ATCC; 2×10^5 cells/mL) with various concentrations of RGD multimers (50 nM, 200 nM, 800 nM) in 100 μL serum-free Dulbecco's modified Eagle's medium (DMEM) containing 0.1% BSA were incubated for 20 min at 37° C. The resulting mixture was added to the plates and incubated for 1 h at 37° C. Plates treated with BSA only were used as negative control. After removal of the medium by aspiration, 0.04% crystal violet solution was added and incubated for 10 min at room temperature. The wells were washed three times with PBS and 20 μL Triton X-100 were added for permeabilization. Distilled water (80 μL) was then added and the number of adherent cells was assessed with a microplate reader (Tecan; measurement wavelength: 550 nm; reference wavelength: 630 nm).
# integrin αvβ3 = target: T1, integrin αvβ3 (Homo sapiens, UniProt P05106+P06756); assay: competitive cell binding assay using ^125I-echistatin on U87MG cells; settings: for IC50: n=3, read-out: IC50 (inhibition of ^125I-echistatin binding to U87MG cells)
# T1 construct: evaluated using U87MG cells (integrin αvβ3-positive); endogenous in cells; host or cells: U87MG human glioblastoma cells (ATCC)
# Protocol: Experiments were performed on U87MG human glioblastoma cells with triplicate samples as previously reported.
# In vitro integrin αvβ3-binding affinities and specificities of RGD4, PRGD4 and FPRGD4 were assessed via displacement cell binding assays using ^125I-echistatin as the integrin αvβ3-specific radioligand. Experiments were performed on U87MG human glioblastoma cells by the method previously described (J Nucl Med. 2005;46:1707-1718 J Nucl Med. 2006;47:1172-1180, which is incorporated herein by reference for the corresponding discussion). […] Experiments were performed with triplicate samples.
# Experiments were performed with triplicate samples.
# In vitro integrin-binding affinity and specificity of RGD multimers and DOTA-RGD multimers were assessed via competitive cell binding assays using ^125I-echistatin as the integrin αvβ3-specific radioligand (J Nucl Med. 2005;46:1707-1718, which is incorporated herein by reference for the corresponding discussion). […] Experiments were performed with triplicate samples.
# [1] = biodistribution of ^3H-PTX and ^3H-RGD2−PTX in MDA-MB-435 tumor-bearing mice; type: in vivo, mouse; settings: female, athymic nude (nu/nu), mouse, iv, 2.9 umol/kg, total radioactivity
# Protocol: (§1) All animal experiments were performed in compliance with the guidelines for the care and use of research animals established by the Stanford University's Animal Studies Committee. Female athymic nude mice (nu/nu) were obtained from Harlan (Indianapolis, Ind.) at 6-8 weeks of age and were kept under sterile conditions. The MDA-MB-435 cells were harvested and suspended in sterile PBS at a concentration of 5×10^7 cells/mL. Viable cells (5×10^6) in PBS (100 μL) were injected orthotopically in the right mammary fat pad. […] Tumor growth was followed by caliper measurements of perpendicular measures of the tumor. The tumor volume was estimated by the formula: tumor volume=a×(b^2)/2, where a and b are the tumor length and width respectively in mm.
# (§2) The animals were euthanized at 4, 24 and 48 h post injection and major organs and tissues were collected correspondingly. Approximately 100 mg of the tissue was added to glass scintillation vials containing 1 mL of tissue solubilizer SoluEne®-350 (Perkin-Elmer, Waltham, Mass.). These samples were digested at 55° C. for overnight followed by bleaching to obtain the decolorized samples. Chemiluminescence was reduced by the addition of glacial acetic acid. Hionic-Fluor liquid scintillation cocktail (Perkin-Elmer) was added to all samples, which were then counted with a Tri-Carb 2800TR liquid scintillation Analyzer (Perkin-Elmer).
# [2] = system: MDA-MB-435 tumor-bearing mice; assay: as above; type: in vivo, mouse
# Protocol: as §1, §2
# [3] = tumor/kidney, read-out: tumor/kidney ratio
# [4] = tumor/liver, read-out: tumor/liver ratio
# [5] = tumor/muscle, read-out: tumor/muscle ratio
smiles,measurement,setting,value
N=C(N)NCCC[C@@H]1NC(=O)[C@H](CCCCNC(=O)CC[C@H](NC(=O)CC[C@H](NC(=O)CN2CCN(CC(=O)O)CCN(CC(=O)O)CCN(CC(=O)O)CC2)C(=O)N[C@@H](CCC(=O)NCCCC[C@@H]2NC(=O)[C@@H](Cc3ccc(O)cc3)NC(=O)[C@H](CC(=O)O)NC(=O)CNC(=O)[C@H](CCCNC(=N)N)NC2=O)C(=O)NCCCC[C@@H]2NC(=O)[C@@H](Cc3ccc(O)cc3)NC(=O)[C@H](CC(=O)O)NC(=O)CNC(=O)[C@H](CCCNC(=N)N)NC2=O)C(=O)NCCCC[C@@H]2NC(=O)[C@@H](Cc3ccc(O)cc3)NC(=O)[C@H](CC(=O)O)NC(=O)CNC(=O)[C@H](CCCNC(=N)N)NC2=O)NC(=O)[C@@H](Cc2ccc(O)cc2)NC(=O)[C@H](CC(=O)O)NC(=O)CNC1=O [DOTA-RGD tetramer],IC50,integrin αvβ3; Example 4,28 nM
"N=C(N)NCCC[C@@H]1NC(=O)[C@H](CCCCNC(=O)CC[C@H](NC(=O)CC[C@H](NC(=O)COCCOCCOCCN)C(=O)N[C@@H](CCC(=O)NCCCC[C@@H]2NC(=O)[C@@H](Cc3ccc(O)cc3)NC(=O)[C@H](CC(=O)O)NC(=O)CNC(=O)[C@H](CCCNC(=N)N)NC2=O)C(=O)NCCCC[C@@H]2NC(=O)[C@@H](Cc3ccc(O)cc3)NC(=O)[C@H](CC(=O)O)NC(=O)CNC(=O)[C@H](CCCNC(=N)N)NC2=O)C(=O)NCCCC[C@@H]2NC(=O)[C@@H](Cc3ccc(O)cc3)NC(=O)[C@H](CC(=O)O)NC(=O)CNC(=O)[C@H](CCCNC(=N)N)NC2=O)NC(=O)[C@@H](Cc2ccc(O)cc2)NC(=O)[C@H](CC(=O)O)NC(=O)CNC1=O [PRGD4, NH2-mini-PEG-CO-E{E[c(RGDyK)]2}2]",IC50,integrin αvβ3; Example 2,46.5 ± 5.3 nM
CC(=O)O[C@H]1C(=O)[C@@]2(C)[C@H]([C@H](OC(=O)c3ccccc3)[C@]3(O)C[C@H](OC(=O)[C@H](OC(=O)CCC(=O)N[C@@H](CCC(=O)NCCCC[C@@H]4NC(=O)[C@@H](Cc5ccc(O)cc5)NC(=O)[C@H](CC(=O)O)NC(=O)CNC(=O)[C@H](CCCNC(=N)N)NC4=O)C(=O)NCCCC[C@@H]4NC(=O)[C@@H](Cc5ccc(O)cc5)NC(=O)[C@H](CC(=O)O)NC(=O)CNC(=O)[C@H](CCCNC(=N)N)NC4=O)[C@@H](NC(=O)c4ccccc4)c4ccccc4)C(C)=C1C3(C)C)[C@]1(OC(C)=O)CO[C@@H]1C[C@@H]2O [^3H-RGD2−PTX],tissue to tissue ratio at 4 h,[1]; [3],0.25
same,tissue to tissue ratio at 24 h,[1]; [3],0.68
same,tissue to tissue ratio at 48 h,[1]; [3],0.53
same,tissue to tissue ratio at 4 h,[1]; [4],0.29
same,tissue to tissue ratio at 24 h,[1]; [4],0.45
same,tissue to tissue ratio at 48 h,[1]; [4],0.27
same,tissue to tissue ratio at 4 h,[1]; [5],2.86
same,tissue to tissue ratio at 24 h,[1]; [5],2.82
same,tissue to tissue ratio at 48 h,[1]; [5],1.74
same,"tissue concentration, Blood",[2]; 4 h,101.7 ± 30.8 ng/g
same,"tissue concentration, Heart",[2]; 4 h,228.7 ± 29.8 ng/g
same,"tissue concentration, Intestine",[2]; 4 h,127.8 ± 20.3 ng/g
same,"tissue concentration, Kidney",[2]; 4 h,1421.6 ± 289.8 ng/g
same,"tissue concentration, Liver",[2]; 4 h,1252.9 ± 109.9 ng/g
same,"tissue concentration, Lung",[2]; 4 h,300.4 ± 30.9 ng/g
same,"tissue concentration, MDA-MB-435 tumor",[2]; 4 h,357.5 ± 62.62 ng/g
same,"tissue concentration, Muscle",[2]; 4 h,125.1 ± 24.0 ng/g
same,"tissue concentration, Skin",[2]; 4 h,144.1 ± 15.9 ng/g
same,"tissue concentration, Spleen",[2]; 4 h,322.3 ± 59.3 ng/g
same,"tissue concentration, Stomach",[2]; 4 h,119.0 ± 16.7 ng/g
same,tumor/muscle ratio,[2]; 4 h,2.86
same,"tissue concentration, Liver","[2]; 4 h, listed as 3H-RGD2-PTX",1252.9 ± 109.9 ng/g
same,"tissue concentration, MDA-MB-435 tumor","[2]; 4 h, listed as 3H-RGD2-PTX",357.5 ± 62.6 ng/g
same,"tissue concentration, Blood",[2]; 24 h,143.1 ± 18.0 ng/g
same,"tissue concentration, Heart",[2]; 24 h,170.7 ± 18.6 ng/g
same,"tissue concentration, Intestine",[2]; 24 h,52.1 ± 7.5 ng/g
same,"tissue concentration, Kidney",[2]; 24 h,338.9 ± 22.1 ng/g
same,"tissue concentration, Liver",[2]; 24 h,510.4 ± 28.9 ng/g
same,"tissue concentration, Lung",[2]; 24 h,238.6 ± 75.6 ng/g
same,"tissue concentration, MDA-MB-435 tumor",[2]; 24 h,229.4 ± 50.4 ng/g
same,"tissue concentration, Muscle",[2]; 24 h,81.2 ± 11.4 ng/g
same,"tissue concentration, Skin",[2]; 24 h,87.2 ± 16.1 ng/g
same,"tissue concentration, Spleen",[2]; 24 h,228.7 ± 39.4 ng/g
same,"tissue concentration, Stomach",[2]; 24 h,71.63 ± 9.5 ng/g
same,tumor/muscle ratio,[2]; 24 h,2.82
same,"tissue concentration, MDA-MB-435 tumor","[2]; 24 h, listed as 3H-RGD2-PTX",229.4 ± 50.4 ng/g
same,"tissue concentration, Blood",[2]; 48 h,225.4 ± 12.8 ng/g
same,"tissue concentration, Heart",[2]; 48 h,222.5 ± 16.2 ng/g
same,"tissue concentration, Intestine",[2]; 48 h,50.8 ± 9.5 ng/g
same,"tissue concentration, Kidney",[2]; 48 h,281.8 ± 32.6 ng/g
same,"tissue concentration, Liver",[2]; 48 h,545.3 ± 30.6 ng/g
same,"tissue concentration, Lung",[2]; 48 h,207.8 ± 48.2 ng/g
same,"tissue concentration, MDA-MB-435 tumor",[2]; 48 h,148.8 ± 40.2 ng/g
same,"tissue concentration, Muscle",[2]; 48 h,85.6 ± 28.0 ng/g
same,"tissue concentration, Skin",[2]; 48 h,66.0 ± 9.1 ng/g
same,"tissue concentration, Spleen",[2]; 48 h,227.9 ± 28.2 ng/g
same,"tissue concentration, Stomach",[2]; 48 h,71.7 ± 12.2 ng/g
same,tumor/muscle ratio,[2]; 48 h,1.74
same,"tissue concentration, MDA-MB-435 tumor","[2]; 48 h, listed as 3H-RGD2-PTX",148.8 ± 40.2 ng/g
"N=C(N)NCCC[C@@H]1NC(=O)[C@H](CCCCNC(=O)CC[C@H](N)C(=O)NCCCC[C@@H]2NC(=O)[C@@H](Cc3ccc(O)cc3)NC(=O)[C@H](CC(=O)O)NC(=O)CNC(=O)[C@H](CCCNC(=N)N)NC2=O)NC(=O)[C@@H](Cc2ccc(O)cc2)NC(=O)[C@H](CC(=O)O)NC(=O)CNC1=O [RGD2, E[c(RGDyK)]2, reference compound]",IC50,U87MG cells,700 nM
"N=C(N)NCCC[C@@H]1NC(=O)[C@H](CCCCNC(=O)CC[C@H](NC(=O)CC[C@H](NC(=S)Nc2ccc(C[C@H]3CN(CC(=O)O)CCN(CC(=O)O)CCN3CC(=O)O)cc2)C(=O)N[C@@H](CCC(=O)NCCCC[C@@H]2NC(=O)[C@@H](Cc3ccc(O)cc3)NC(=O)[C@H](CC(=O)O)NC(=O)CNC(=O)[C@H](CCCNC(=N)N)NC2=O)C(=O)NCCCC[C@@H]2NC(=O)[C@@H](Cc3ccc(O)cc3)NC(=O)[C@H](CC(=O)O)NC(=O)CNC(=O)[C@H](CCCNC(=N)N)NC2=O)C(=O)NCCCC[C@@H]2NC(=O)[C@@H](Cc3ccc(O)cc3)NC(=O)[C@H](CC(=O)O)NC(=O)CNC(=O)[C@H](CCCNC(=N)N)NC2=O)NC(=O)[C@@H](Cc2ccc(O)cc2)NC(=O)[C@H](CC(=O)O)NC(=O)CNC1=O [NOTA-RGD4, NOTA-E{E[c(RGDyK)]2}2]",fold higher integrin αvβ3 affinity than NOTA-RGD1,integrin αvβ3; Example 5,13 fold
same,fold increase of integrin avidity compared to NOTA-RGD2,integrin αvβ3; Example 5,3 fold
same,IC50,integrin αvβ3; Example 5,16.1 ± 3.1 nM

# Reference: US20080267882A1, “Imaging compounds, methods of making imaging compounds, methods of imaging, therapeutic compounds, methods of making therapeutic compounds, and methods of therapy” (Stanford University, priority 2007, published 2008)
